Test [1] addresses Pin1 (wild-type, SEQ ID NO:1) (human) (UniProt Q13526). Nature of the test: cell-based or functional assay.
The target in test [2] is Pin1 R14A (SEQ ID NO:2) (human) (UniProt Q13526). Briefly: cell-based or functional assay.

Regarding phosphokinase A (PKA) (enzyme), the MALDI-TOF mass increase after PKA treatment in test [1] is 160 Daltons; in test [2], 90 Daltons.

The values above are taken from patent US20060074222A1.
